Reference: patent publication US20170052184A1

How the values were obtained:
[1] = biological target: Mut1T110N biotin labeled HCV core peptide (hepatitis C virus); assay: EIA; Ab 1.953 ng/mL captured on anti-mouse Fc; bt-peptide 500 ng/mL
[2] = biological target: Mut6T110S biotin labeled HCV core peptide (hepatitis C virus); assay: as above
[3] = biological target: 92-133 biotin labeled HCV core peptide (hepatitis C virus) (UniProt P26664); assay: as above
[4] = biological target: C113T109N biotin labeled HCV core peptide (hepatitis C virus); assay: as above
[5] = biological target: Mut1T110N biotin labeled HCV core peptide (hepatitis C virus); assay: EIA; Ab 125 ng/mL captured on anti-mouse Fc; bt-peptide 500 ng/mL
[6] = biological target: Mut6T110S biotin labeled HCV core peptide (hepatitis C virus); assay: as above
[7] = biological target: 92-133 biotin labeled HCV core peptide (hepatitis C virus) (UniProt P26664); assay: as above
[8] = biological target: C113T109N biotin labeled HCV core peptide (hepatitis C virus); assay: as above
[9] = biological target: Mut1T110N biotin labeled HCV core peptide (hepatitis C virus); assay: EIA; Ab 500 ng/mL captured on anti-mouse Fc; bt-peptide 500 ng/mL
[10] = biological target: Mut6T110S biotin labeled HCV core peptide (hepatitis C virus); assay: as above
[11] = biological target: 92-133 biotin labeled HCV core peptide (hepatitis C virus) (UniProt P26664); assay: as above
[12] = biological target: C113T109N biotin labeled HCV core peptide (hepatitis C virus); assay: as above
[13] = biological target: Mut1T110N biotin labeled HCV core peptide (hepatitis C virus); assay: EIA; Ab 2000 ng/mL captured on anti-mouse Fc; bt-peptide 500 ng/mL
[14] = biological target: Mut6T110S biotin labeled HCV core peptide (hepatitis C virus); assay: as above
[15] = biological target: 92-133 biotin labeled HCV core peptide (hepatitis C virus) (UniProt P26664); assay: as above
[16] = biological target: C113T109N biotin labeled HCV core peptide (hepatitis C virus); assay: as above
[17] = biological target: Mut1T110N biotin labeled HCV core peptide (hepatitis C virus); assay: EIA; Ab 3.906 ng/mL captured on anti-mouse Fc; bt-peptide 500 ng/mL
[18] = biological target: Mut6T110S biotin labeled HCV core peptide (hepatitis C virus); assay: as above
[19] = biological target: 92-133 biotin labeled HCV core peptide (hepatitis C virus) (UniProt P26664); assay: as above
[20] = biological target: C113T109N biotin labeled HCV core peptide (hepatitis C virus); assay: as above
[21] = biological target: Mut1T110N biotin labeled HCV core peptide (hepatitis C virus); assay: EIA; Ab 1000 ng/mL captured on anti-mouse Fc; bt-peptide 500 ng/mL
[22] = biological target: Mut6T110S biotin labeled HCV core peptide (hepatitis C virus); assay: as above
[23] = biological target: 92-133 biotin labeled HCV core peptide (hepatitis C virus) (UniProt P26664); assay: as above
[24] = biological target: C113T109N biotin labeled HCV core peptide (hepatitis C virus); assay: as above
[25] = biological target: Mut1T110N biotin labeled HCV core peptide (hepatitis C virus); assay: EIA; Ab 7.813 ng/mL captured on anti-mouse Fc; bt-peptide 500 ng/mL
[26] = biological target: Mut6T110S biotin labeled HCV core peptide (hepatitis C virus); assay: as above
[27] = biological target: 92-133 biotin labeled HCV core peptide (hepatitis C virus) (UniProt P26664); assay: as above
[28] = biological target: C113T109N biotin labeled HCV core peptide (hepatitis C virus); assay: as above
[29] = biological target: Mut1T110N biotin labeled HCV core peptide (hepatitis C virus); assay: EIA; Ab 15.625 ng/mL captured on anti-mouse Fc; bt-peptide 500 ng/mL
[30] = biological target: Mut6T110S biotin labeled HCV core peptide (hepatitis C virus); assay: as above
[31] = biological target: 92-133 biotin labeled HCV core peptide (hepatitis C virus) (UniProt P26664); assay: as above
[32] = biological target: C113T109N biotin labeled HCV core peptide (hepatitis C virus); assay: as above

HCV C11-3 monoclonal antibody
signal at 492 nm [1]: 0.0854 OD 492 nm
signal at 492 nm [2]: 0.0964 OD 492 nm
signal at 492 nm [3]: 0.134 OD 492 nm
signal at 492 nm [4]: 0.114 OD 492 nm
signal at 492 nm [5]: 0.127 OD 492 nm
signal at 492 nm [6]: 2.02 OD 492 nm
signal at 492 nm [7]: 1.83 OD 492 nm
signal at 492 nm [8]: 0.147 OD 492 nm
signal at 492 nm [9]: 0.0765 OD 492 nm
signal at 492 nm [10]: 2.24 OD 492 nm
signal at 492 nm [11]: 1.95 OD 492 nm
signal at 492 nm [12]: 0.0882 OD 492 nm
signal at 492 nm [13]: 0.0915 OD 492 nm
signal at 492 nm [14]: 1.73 OD 492 nm
signal at 492 nm [15]: 1.45 OD 492 nm
signal at 492 nm [16]: 0.0707 OD 492 nm
signal at 492 nm [17]: 0.079 OD 492 nm
signal at 492 nm [18]: 0.227 OD 492 nm
signal at 492 nm [19]: 0.183 OD 492 nm
signal at 492 nm [20]: 0.0833 OD 492 nm
signal at 492 nm [21]: 0.0721 OD 492 nm
signal at 492 nm [22]: 2.15 OD 492 nm
signal at 492 nm [23]: 1.87 OD 492 nm
signal at 492 nm [24]: 0.0806 OD 492 nm
signal at 492 nm [25]: 0.0966 OD 492 nm
signal at 492 nm [26]: 0.344 OD 492 nm
signal at 492 nm [27]: 0.562 OD 492 nm
signal at 492 nm [28]: 0.119 OD 492 nm
signal at 492 nm [29]: 0.11 OD 492 nm
signal at 492 nm [30]: 0.807 OD 492 nm
signal at 492 nm [31]: 1.01 OD 492 nm
signal at 492 nm [32]: 0.116 OD 492 nm
